Results published in patent US11905559B2, “Materials and methods for controlling gene expression” (priority 2016, dated 2024).

Assays:
guanine-riboswitch = settings: previous in-line measurements; cited from earlier work
[1] = Force-ramp mechanical assay of the full-length xpt leader mRNA; type: physicochemical
Text: A dual-beam high-resolution optical tweezers was built that can detect short-lived fluctuations at sub-milliseconds (<0.25 msec) time scale at a single base pair level, with high precision and accuracy. This instrument was used to investigate the conformational dynamics of the full-length (FL) guanine-responsive riboswitch (guanine-riboswitch) and its 69-nt aptamer domain present in the 5′-UTR of an xpt-pbuX operon in B. subtilis. It has been shown that the xpt leader mRNA selectively downregulates the gene expression by transcription termination in the presence of guanine (FIG. 17B). The FL xpt mRNA was subjected to mechanical assays in order to identify the terminator and an anti-terminator conformation. […] The unfolding trajectory (red curve) indicated the melting of the 35-nt terminator hairpin at 16.1±0.5 pN (n=1200 traces) with a transition distance, ΔXt˜15±3 nm. A second transition at 17.9±0.9 pN with a distance, ΔXa˜25-30 nm indicated the unfolding of the 69-nt aptamer. […] The terminator mutant (FL-mutant, FIGS. 17D-E) abolished the 16.0 pN transition, thus supporting the structural assignment.
The forces on the bead were recorded at an acquisition rate of 44 kHz. Data was collected from the stereo phone jacks on the ADC boards of the Tweezers instrument and sent to the host computer audio input for analysis by SignalScope program (Faber Acoustical, LLC). As shown in the plot, power spectral density is fitted with the Lorentzian fit to yield the corner frequency (fc) that was used to calculate the trap stiffness. This setup was used to perform three different mechanical reactions: force-ramp (FR), constant-force (CF) and force-jump (FJ) under a controlled force. In the force-ramp (FR) experiment, the trap was moved at 200 nm/s, which corresponded to a loading rate 7-8 pN/s. […] The force-ramp data is plotted as force vs. extension curves (FEC).

[2] = Constant-force / force-jump assay of the full-length riboswitch RNA; type: physicochemical
Text: Moreover, as the successive traces were not reproducible, the anti-terminator conformation could not be assigned to the transitions. […] The function of the random structures can be presumed to destabilize the terminator hairpin and turn “ON” the gene expression. The un-bound trajectories are referred to as the “non-terminator” conformations to distinguish from the traditionally defined anti-terminator conformation. […] To assess the mode of allosteric modulation (tilt-equilibrium or induced-fit), the mechanical unfolding assay was performed in the presence of guanine salts ranging from 1 nM to 1 μM. […] Had this been the case, a gradual shift would have been observed in the equilibrium toward the terminator conformation according to the tilt-equilibrium model. […] Thus, at 16 pN, the terminator fluctuates between the open and the closed states, observed as Y*↔Y and Z*↔Z in FIG. 23A. […] The Keq˜0.1
[formula] implied that the hairpin preferred the open state (90%) at 16 pN (the Keq˜1 at 15.6 pN). The expression platform dynamics and the unfolding scheme are shown in FIGS. 27A-B. That the bi-stabilities are due to the terminator was further confirmed by subjecting the FL-mutant to similar cycles (FIG. 23B). […] The findings thus underscore that only the guanine induces a terminator conformation to the expression platform. Transition Y→Z* (ΔX=14±2.5 nm) indicated a complete unfolding of the aptamer (FIGS. 27A-B).
In a constant-force (CF) experiment, the RNA is held at a preset force through feedback control. The preset force typically fluctuated around the mean with a standard deviation ±0.15 pN. In this mode, data is recorded from 4-40 kHz to capture the fast intermediates. The plots are shown as extension vs. time (as in FIG. 6A). In force-jump (FJ) assay, the force is suddenly jumped from one force to another, and then held constant thereafter, as shown in FIGS. 23A-B.

In the case of Nc1nc(N)c2[nH]cnc2n1 [DAP, 2,6-diaminopurine], the Kd (guanine-riboswitch) is given as ~10 µM.

B1: FL xpt mRNA: full-length wild-type guanine riboswitch sequence comprising the aptamer domain and expression platform (SEQ ID NO: 12) (nucleic acid)
chain: AAUAUAAUAGGAACACUCAUAUAAUCGCGUGGAUAUGGCACGCAAGUUUCUACCGGGCACCGUAAAUGUCCGACUAUGGGUGAGCAAUGGAACCGCACGUGUACGGUUUUUUGUGAUAUCAGCAUUGCUUGCUCUUUAUUUGAGCGGGCAAUGCUUUUUUUAUUCUCAUAACGGAGGUAGACAGGAUG
modifications: aptamer_domain (14)..(82); expression_platform (83)..(188)
In the case of B1, the “Force of second transition (unfolding of the 69-nt aptamer)” value ([1]; 1 μM guanine) is reported as 17.9±0.9 pN, the “Transition distance ΔXa (aptamer)” value ([1]; 1 μM guanine) is reported as 25-30 nm and the “Transition distance ΔXt (terminator)” value ([1]; 1 μM guanine) is reported as ~15±3 nm. For the same molecule, the “Melting force of the 35-nt terminator hairpin” value ([1]; 1 μM guanine, n=1200 traces) was 16.1±0.5 pN, the “Keq of terminator hairpin” value ([2]; 15.6 pN, +G) was ~1 and the “Keq of terminator hairpin” value ([2]; 16 pN, +G) was ~0.1. The “Terminator hairpin in the open state” value ([2]; 16 pN, +G) was 90%, the “ΔX of transition Y→Z* (complete unfolding of the aptamer)” value ([2]; 16 pN, +G) was 14±2.5 nm and the “Change in extension of terminator open/closed bi-stabilities (Y*↔Y, Z*↔Z)” value ([2]; 16 pN, +G (FIG. 23A: 200 nM guanine)) was 15±1.7 nm.

B2: FL-mutant: full-length mutant guanine riboswitch sequence comprising the aptamer domain and expression platform (SEQ ID NO: 13) (nucleic acid)
chain: AAUAUAAUAGGAACACUCAUAUAAUCGCGUGGAUAUGGCACGCAAGUUUCUACCGGGCACCGUAAAUGUCCGACUAUGGGUGAGCAAUGGAACCGCACGUGUACGGUUUUUUGUGAUAUCAGCAUUGCUUGCUCUUUAUUUGAGCGGCGAAUCGUUUUUUUAUUCUCAUAACGGAGGUAGACAGGAUG
modifications: aptamer_domain (14)..(82); expression_platform (83)..(188)
In the case of B2, the “16.0 pN terminator transition (in words)” value ([1]; force-extension curve) is reported as “abolished” and the “Terminator hopping (in words)” value ([2]; 75 traces, 200 nM guanine) is reported as “without exhibiting a terminator hopping”.
